Assay results reported in paper PMC5753033.

T1: Mouse profilin 2a, Q9JJV2
T1 chain: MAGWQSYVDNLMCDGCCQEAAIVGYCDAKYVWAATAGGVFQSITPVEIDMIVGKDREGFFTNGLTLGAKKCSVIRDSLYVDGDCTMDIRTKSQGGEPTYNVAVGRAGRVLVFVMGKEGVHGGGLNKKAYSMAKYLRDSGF


Experiments:
[1] = target: T1, Mouse profilin 2a, Q9JJV2; assay: sedimentation equilibrium analytical ultracentrifugation; conditions: chain shown with the change
Human profilin 1, P07737 = assay: as above; conditions: chain shown with the change; modeled as a 1:1 interaction
[2] = two-site, independent binding model with one site fixed to the measured non-specific affinity

Binder | Kd [1, 2] [µM] | other results
WAVE1 (P): human WAVE1 [277–488], wild-type proline-rich domain, Q92558 P279G; P280S; P281G; P282S; P348G; P349S; P350G; P351S; P354G; P355S; P356G; P357S; … (protein) MPLVKRNIDPRHLCHTALPRGIKNELECVTNISLANIIRQLSSLSKYAEDIFGELFNEAHSFSFRVNSLQERVDRLSVSVTQLDPKEEELSLQDITMRKAFRSSTIQDQQLFDRKTLPIPLQETYDVCEQPPPLNILTPYRDDGKEGLKFYTNPSYFFDLWKEKMLQDTEDKRKEKRKQKQKNLDRPHEPEKVPRAPHDRRREWQKLAQGPELAEDDANLLHKHIEVANGPASHFETRPQTYVDHMDGSYSLSALPFSQMSELLTRAEERVLVRPHEPGSGSPMHGAGDAKPIPTCISSATGLIENRPQSPATGRTPVFVSPTPPPPPPPLPSALSTSSLRASMTSTGSGSVPGSGSPPATALQAPAVGSGSAPLQIAPGVLHPAGSGIAGSLVQPSPPVARAAPVCETVPVHPLPQGEVQGLPPGSGSPPLGSGGIRPSSPVTVTALAHPPSGLHPTPSTAPGPHVPLMPPSPPSQVIPASEPKRHPSTLPVISDARSVLLEAIRKGIQLRKVEEQREQEAKHERIENDVATILSRRIAVEYSDSEDDSEFDEVDWLE | – | Kd ([1]; WAVE1 (PRD [B]) 15.5 µM, Pfn2 91.2, 44.8 and 21.7 µM, 7 K, 10 K, 14 K rpm, 2:1 binding model, Kd1 fit, Kd2 = 138 µM fixed): 2.07 µM
WAVE1 (P): human WAVE1 [277–488], wild-type proline-rich domain, Q92558 P279G; P280S; P281G; P282S; P325G; P326S; P327G; P328S; P348G; P349S; P350G; P351S; … (protein) MPLVKRNIDPRHLCHTALPRGIKNELECVTNISLANIIRQLSSLSKYAEDIFGELFNEAHSFSFRVNSLQERVDRLSVSVTQLDPKEEELSLQDITMRKAFRSSTIQDQQLFDRKTLPIPLQETYDVCEQPPPLNILTPYRDDGKEGLKFYTNPSYFFDLWKEKMLQDTEDKRKEKRKQKQKNLDRPHEPEKVPRAPHDRRREWQKLAQGPELAEDDANLLHKHIEVANGPASHFETRPQTYVDHMDGSYSLSALPFSQMSELLTRAEERVLVRPHEPGSGSPMHGAGDAKPIPTCISSATGLIENRPQSPATGRTPVFVSPTPGSGSPPLPSALSTSSLRASMTSTGSGSVPGSGSPPATALQAPAVGSGSAPLQIAPGVLHPAGSGIAGSLVQPSPPVARAAPVCETVPVHPLPQGEVQGLPPGSGSPPLGSGGIRPSSPVTVTALAHPPSGLHPTPSTAPGPHVPLMPPSPPSQVIPASEPKRHPSTLPVISDARSVLLEAIRKGIQLRKVEEQREQEAKHERIENDVATILSRRIAVEYSDSEDDSEFDEVDWLE | – | Kd (Human profilin 1, P07737): 813 µM; Kd ([1]; modeled as a 1:1 interaction): 138 µM
WAVE1 (P): human WAVE1 [277–488], wild-type proline-rich domain, Q92558 P279G; P280S; P281G; P282S; P325G; P326S; P327G; P328S; P369G; P370S; P371G; P372S; … (protein) MPLVKRNIDPRHLCHTALPRGIKNELECVTNISLANIIRQLSSLSKYAEDIFGELFNEAHSFSFRVNSLQERVDRLSVSVTQLDPKEEELSLQDITMRKAFRSSTIQDQQLFDRKTLPIPLQETYDVCEQPPPLNILTPYRDDGKEGLKFYTNPSYFFDLWKEKMLQDTEDKRKEKRKQKQKNLDRPHEPEKVPRAPHDRRREWQKLAQGPELAEDDANLLHKHIEVANGPASHFETRPQTYVDHMDGSYSLSALPFSQMSELLTRAEERVLVRPHEPGSGSPMHGAGDAKPIPTCISSATGLIENRPQSPATGRTPVFVSPTPGSGSPPLPSALSTSSLRASMTSTPPPPVPPPPPPPATALQAPAVGSGSAPLQIAPGVLHPAGSGIAGSLVQPSPPVARAAPVCETVPVHPLPQGEVQGLPPGSGSPPLGSGGIRPSSPVTVTALAHPPSGLHPTPSTAPGPHVPLMPPSPPSQVIPASEPKRHPSTLPVISDARSVLLEAIRKGIQLRKVEEQREQEAKHERIENDVATILSRRIAVEYSDSEDDSEFDEVDWLE | 12 | –
WAVE1 (P): human WAVE1 [277–488], wild-type proline-rich domain, Q92558 P325G; P326S; P327G; P328S; P348G; P349S; P350G; P351S; P354G; P355S; P356G; P357S; … (protein) MPLVKRNIDPRHLCHTALPRGIKNELECVTNISLANIIRQLSSLSKYAEDIFGELFNEAHSFSFRVNSLQERVDRLSVSVTQLDPKEEELSLQDITMRKAFRSSTIQDQQLFDRKTLPIPLQETYDVCEQPPPLNILTPYRDDGKEGLKFYTNPSYFFDLWKEKMLQDTEDKRKEKRKQKQKNLDRPHEPEKVPRAPHDRRREWQKLAQGPELAEDDANLLHKHIEVANGPASHFETRPQTYVDHMDGSYSLSALPFSQMSELLTRAEERVLVRPHEPPPPPPMHGAGDAKPIPTCISSATGLIENRPQSPATGRTPVFVSPTPGSGSPPLPSALSTSSLRASMTSTGSGSVPGSGSPPATALQAPAVGSGSAPLQIAPGVLHPAGSGIAGSLVQPSPPVARAAPVCETVPVHPLPQGEVQGLPPGSGSPPLGSGGIRPSSPVTVTALAHPPSGLHPTPSTAPGPHVPLMPPSPPSQVIPASEPKRHPSTLPVISDARSVLLEAIRKGIQLRKVEEQREQEAKHERIENDVATILSRRIAVEYSDSEDDSEFDEVDWLE | 51 | –
WAVE1 (P): human WAVE1 [277–488], wild-type proline-rich domain, Q92558 P279G; P280S; P281G; P282S; P325G; P326S; P327G; P328S; P348G; P349S; P350G; P351S; … (protein) MPLVKRNIDPRHLCHTALPRGIKNELECVTNISLANIIRQLSSLSKYAEDIFGELFNEAHSFSFRVNSLQERVDRLSVSVTQLDPKEEELSLQDITMRKAFRSSTIQDQQLFDRKTLPIPLQETYDVCEQPPPLNILTPYRDDGKEGLKFYTNPSYFFDLWKEKMLQDTEDKRKEKRKQKQKNLDRPHEPEKVPRAPHDRRREWQKLAQGPELAEDDANLLHKHIEVANGPASHFETRPQTYVDHMDGSYSLSALPFSQMSELLTRAEERVLVRPHEPGSGSPMHGAGDAKPIPTCISSATGLIENRPQSPATGRTPVFVSPTPGSGSPPLPSALSTSSLRASMTSTGSGSVPGSGSPPATALQAPAVGSGSAPLQIAPGVLHPAPPPIAPPLVQPSPPVARAAPVCETVPVHPLPQGEVQGLPPGSGSPPLGSGGIRPSSPVTVTALAHPPSGLHPTPSTAPGPHVPLMPPSPPSQVIPASEPKRHPSTLPVISDARSVLLEAIRKGIQLRKVEEQREQEAKHERIENDVATILSRRIAVEYSDSEDDSEFDEVDWLE | 182 | –
WAVE1 (P): human WAVE1 [277–488], wild-type proline-rich domain, Q92558 P279G; P280S; P281G; P282S; P325G; P326S; P327G; P328S; P348G; P349S; P350G; P351S; … (protein) MPLVKRNIDPRHLCHTALPRGIKNELECVTNISLANIIRQLSSLSKYAEDIFGELFNEAHSFSFRVNSLQERVDRLSVSVTQLDPKEEELSLQDITMRKAFRSSTIQDQQLFDRKTLPIPLQETYDVCEQPPPLNILTPYRDDGKEGLKFYTNPSYFFDLWKEKMLQDTEDKRKEKRKQKQKNLDRPHEPEKVPRAPHDRRREWQKLAQGPELAEDDANLLHKHIEVANGPASHFETRPQTYVDHMDGSYSLSALPFSQMSELLTRAEERVLVRPHEPGSGSPMHGAGDAKPIPTCISSATGLIENRPQSPATGRTPVFVSPTPGSGSPPLPSALSTSSLRASMTSTGSGSVPGSGSPPATALQAPAVPPPPAPLQIAPGVLHPAGSGIAGSLVQPSPPVARAAPVCETVPVHPLPQGEVQGLPPGSGSPPLGSGGIRPSSPVTVTALAHPPSGLHPTPSTAPGPHVPLMPPSPPSQVIPASEPKRHPSTLPVISDARSVLLEAIRKGIQLRKVEEQREQEAKHERIENDVATILSRRIAVEYSDSEDDSEFDEVDWLE | 145 | –
